One substance from publication PMC12175908 can be followed below.

This assay concerns the target Paxillin N-domain (residues 1 to 311) (human) (UniProt P49023). The experiment in a line: NMR titration; 100 μM 15N-PXN N-domain, unlabeled FAT added (10 to 300 μM); 2D 1H-15N HSQC, decay of amide peak intensity per LD motif, fraction bound against total FAT; effective (relative) constants for single LD motifs; 100 mM potassium phosphate, 1 mM TCEP, 0.1 mM EDTA, pH 7.0, 10°C.
UniProt P49023, sequence (P49023 other isoform, or with tags, fused parts or gaps): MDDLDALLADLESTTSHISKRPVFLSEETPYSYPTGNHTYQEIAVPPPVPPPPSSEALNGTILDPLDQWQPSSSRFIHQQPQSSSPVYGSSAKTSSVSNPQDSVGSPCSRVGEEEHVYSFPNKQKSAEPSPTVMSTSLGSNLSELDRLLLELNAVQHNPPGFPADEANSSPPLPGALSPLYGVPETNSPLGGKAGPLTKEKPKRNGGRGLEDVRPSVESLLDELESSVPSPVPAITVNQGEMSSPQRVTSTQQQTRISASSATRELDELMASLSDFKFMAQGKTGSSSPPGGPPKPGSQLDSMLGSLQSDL

In the case of “focal adhesion targeting (FAT) domain of focal adhesion kinase (domain or fragment)”, the effective Kd of the LD1 motif turned out to be 17 µM, the effective Kd of the LD2 motif amounted to 7000 µM and the effective Kd of the LD4 motif worked out at 13 µM.
